The results in this text go back to publication PMC6620310, “A ubiquitin-like domain is required for stabilizing the N-terminal ATPase module of human SMCHD1” (Communications Biology, 2019).

To fix the notation:
B1: SMCHD1(24–580) wild-type [human] / itself (parent complex)
chain: GHRTVYLFDRREKESELGDRPLQVGERSDYAGFRACVCQTLGISPEEKFVITTTSRKEITCDNFDETVKDGVTLYLLQSVNQLLLTATKERIDFLPHYDTLVKSGMYEYYASEGQNPLPFALAELIDNSLSATSRNIGVRRIQIKLLFDETQGKPAVAVIDNGRGMTSKQLNNWAVYRLSKFTRQGDFESDHSGYVRPVPVPRSLNSDISYFGVGGKQAVFFVGQSARMISKPADSQDVHELVLSKEDFEKKEKNKEAIYSGYIRNRKPSDSVHITNDDERFLHHLIIEEKEKDSFTAVVITGVQPEHIQYLKNYFHLWTRQLAHIYHYYIHGPKGNEIRTSKEVEPFNNIDIEISMFEKGKVPKIVNLREIQDDMQTLYVNTAADSFEFKAHVEGDGVVEGIIRYHPFLYDRETYPDDPCFPSKLKDEDDEDDCFILEKAARGKRPIFECFWNGRLIPYTSVEDFDWCTPPKKRGLAPIECYNRISGALFTNDKFQVSTNKLTFMDLELKLKDKNTLFTRILNGQEQRMKIDREFALWLKDCHEKYDKQIKFTLFK

Variants of B1 are the subject of the assay. Kind of assay: native PAGE; parent: 0.098; read off a plot.
Turning to chain 1 Y260C, the screen value is roughly 0.012. The result for chain 1 N116H reads roughly 0.093; that for chain 1 Q322R, roughly 0.11; that for chain 1 L171F, roughly 0.008. In the case of chain 1 E450G, the screen value was roughly 0.2. In the case of chain 1 E450Q, the screen value is roughly 0.12.

Regarding chain 1 T500K, the screen value was roughly 0.11.

As to chain 1 H325R, the screen value is roughly 0.12. The result for chain 1 S112C reads roughly 0.096. The result for chain 1 G455E reads roughly 0.01; that for chain 1 G114E, roughly 0.15.
